According to paper PMC7423924, “A fluorogenic cyclic peptide for imaging and quantification of drug-induced apoptosis” (Nature Communications, 2020):
“And” between values parts separate entries of the source, which are not always exact repeats. Equal values may be shown once.

Tested on: primary airway epithelial cells
Assay: Flow cytometry staining before and after induction of apoptosis, epithelial
Type: cell-based, human
Conditions: single replicates, listed as Ann V
Method: Fig. 2 Apo-15 binds to apoptotic cells of different origin in multiple environments. a Representative fluorescence confocal microscopy images (from three independent experiments) human apoptotic (yellow arrows) and viable (white arrows) cells from different lineages: BL-2 (lymphoid), neutrophils (myeloid), and primary airway epithelial cells (epithelial). Cells were incubated with Apo-15 (100 nM, green), AF647-Annexin V (5 nM, red), and Hoechst 33342 (7 μM, blue) for 10 min and imaged under a fluorescence confocal microscope (λexc.: 405, 488, 633 nm: λem.: 450, 525, 670 nm). Scale bars: 10 µm. b Divalent cation-independent binding of Apo-15 to apoptotic cells of different origin (top plots: lymphoid cells, bottom plots: myeloid cells). Mixtures of apoptotic (highlighted in green dots) and viable cells (highlighted in black dots) were stained with AF647-Annexin V (25 nM) and Apo-15 (100 nM) in the presence of 2 mM CaCl2 (left) or 2.5 mM EDTA (right). Representative histograms showing Apo-15 binding (x-axis) vs AF647-Annexin V binding (y-axis) acquired on 5L LSR flow cytometer (n = 5). c Cells were sorted on their Apo-15 positivity (green populations in panel b) or negativity (black populations in panel b). Gating strategy in Supplementary Fig. 7. Morphological analysis (four independent images from two independent experiments) of cytocentrifuge preparations of Apo-15-positive and Apo-15-negative cells under brightfield microscopy (scale bar: 10 µm). d Quantification of fluorescence staining of neutrophils (myeloid, n ≥ 5), BL-2 cells (lymphoid, n ≥ 3) and primary airway epithelial cells (epithelial, n = 5) before and after induction of apoptosis and upon treatment with Apo-15 and AF647-Annexin V. Data acquired on 5 L LSR flow cytometer and presented as mean values ± SEM. P values obtained from two-tailed t tests. Source data (in d) are provided as a Source data file. […]
All apopeptides were reconstituted at 5 mM in DMSO. […] Fluorescence emission was measured on a 5 L LSR flow cytometer (BD). […]

B1: Annexin V: fluorescently-labeled (AF647) annexin V, PS-binding protein (protein, UniProt P08758 2-320, looked up)
Annexin A5: AQVLRGTVTDFPGFDERADAETLRKAMKGLGTDEESILTLLTSRSNAQRQEISAAFKTLFGRDLLDDLKSELTGKFEKLIVALMKPSRLYDAYELKHALKGAGTNEKVLTEIIASRTPEELRAIKQVYEEEYGSSLEDDVVGDTSGYYQRMLVVLLQANRDPDAGIDEAQVEQDAQALFQAGELKWGTDEEKFITIFGTRSVSHLRKVFDKYMTISGFQIEETIDRETSGNLEQLLLAVVKSIRSIPAYLAETLYYAMKGAGTDDHTLIRVMVSRSEIDLFNIRKEFRKNFATSLYSMIKGDTSGDYKKALLLLCGEDD
modifications: AF647 label
- Stained cells (flow cytometry) (epithelial cells untreated (UNT)): 7.0% and 6.2% and 7.1% and 5.9% and 13.0%
- Stained cells (flow cytometry) (epithelial cells, staurosporine (ST, 1 µM 6 h)): 14.1% and 17.9% and 25.5% and 29.1% and 22.0%
- Stained cells (flow cytometry) (epithelial cells, staurosporine, EDTA): 0.024% and 0.1% and 0.37% and 3.0% and 2.0%
